Measurements as given in patent publication US9561272B2, “Compositions and methods for modulating immune responses” (The University of Queensland, priority 2006, dated 2017).

Legend:
[1] = Entrapment efficiency of NF-κB inhibitor and antigen in liposomes (% EE); assay type: physicochemical; conditions: EPC liposomes; for entrapment efficiency of NF-κB inhibitor in liposomes: after removal of non-entrapped drug; for entrapment efficiency of protein antigen in liposomes: freeze-thawing cycle repeated 5 times
Procedure: Entrapment efficiency of protein following this process was typically at least 20%, approximately 60% for Bay and greater than 80% for both Quecertin and Curcumin. Empty, NF-κB inhibitor or protein only liposomes were prepared as above, by omitting the relevant bioactive/s. Following removal of non-entrapped NF-κB inhibitor and antigen, the amount of NF-κB inhibitor and antigen entrapped in liposome could be quantified by assay method. The entrapment efficiency was expressed as: [formula] […] The resulting solution was then kept at −20° C. After 30 minutes, the sample was centrifuged at maximum speed at 4° C. for 10 minutes (EBA 12R centrifuge, Hettich Zentrifugen, Germany) to remove precipitated protein. The concentration of Bay 11-7082 in the resulting supernatant was then assayed and calculated based on the established calibration (with consideration to the dilutions performed) (data not shown). […] The concentration of either quercetin or curcumin in the resulting solution was then assayed and calculated based on the established calibration curves (with consideration to the dilutions performed). […] The quantity of model antigen entrapped in liposomes was determined by a standard bicinchoninic acid (BCA) protein assay with slight modification. Briefly, liposomes loaded with OVA or mBSA were lysed using ethanol or iso-propanol at 20-fold dilution, respectively, and then stored at −20° C. After 30 minutes, the sample was centrifuged at maximum speed at 4° C. for 10 minutes (EBA 12R centrifuge, Hettich Zentrifugen, Germany). The supernatant containing lipid and NF-κB inhibitor was discarded. The protein pellet was then placed in an Alpha 2-4 LD Freeze-drier (Alpha 2-4 LD Freeze-drier, Martin Christ, Germany) to remove remaining solvent. One hundred μL of 2.5% w/v sodium dodecyl sulfate (SDS) solution (for OVA) or water (for mBSA) was added to redissolve the protein pellet. SDS was required for aiding to re-dissolve OVA pellet. The resulting protein solution was mixed with 2 mL of BCA solution (Pierce Biotechnology Inc., USA) and incubated at 37° C. for 30 minutes. After incubation, the absorbance of the solution was measured using a Cary 50 UV-VIS spectrophotometer (Varian, Calif., USA) at a wavelength of 562 nm. The concentration of OVA and mBSA was calculated on the basis of calibration curves established using a series of known concentrations of either OVA or mBSA solution ranging from 0.25 mg/mL to 2 mg/mL.

[2] = cited from earlier work
[3] = previous experiment, thin film method without freeze-thawing, same EPC concentration (Copland 2003); cited from earlier work
NF-κB = conditions: Table 3, miscellaneous inhibitors of NF-κB; step of NF-κB function inhibited, per the cited reference; cited from earlier work

Molecule: Cc1ccc(S(=O)(=O)/C=C/C#N)cc1 [Bay 11-7082, E3((4-methylphenyl)-sulfonyl)-2-propenenitrile, reference compound]
- entrapment efficiency of NF-κB inhibitor in liposomes [1]: around 60%
- entrapment efficiency of NF-κB inhibitor in liposomes ([1]; listed as Bay): approximately 60%
- log P [2]: 1.63

Molecule: methylated bovine serum albumin [mBSA]
- entrapment efficiency of protein antigen in liposomes [1]: approximately 25%

B1: ovalbumin (protein, UniProt P01012 2-386, looked up)
Ovalbumin: GSIGAASMEFCFDVFKELKVHHANENIFYCPIAIMSALAMVYLGAKDSTRTQINKVVRFDKLPGFGDSIEAQCGTSVNVHSSLRDILNQITKPNDVYSFSLASRLYAEERYPILPEYLQCVKELYRGGLEPINFQTAADQARELINSWVESQTNGIIRNVLQPSSVDSQTAMVLVNAIVFKGLWEKAFKDEDTQAMPFRVTEQESKPVQMMYQIGLFRVASMASEKMKILELPFASGTMSMLVLLPDEVSGLEQLESIINFEKLTEWTSSNVMEERKIKVYLPRMKMEEKYNLTSVLMAMGITDVFSSSANLSGISSAESLKISQAVHAAHAEINEAGREVVGSAEAGVDAASVSEEFRADHPFLFCIKHIATNAVLFFGRCVSP
notes: model antigen
- entrapment efficiency of protein antigen in liposomes [1]: ~20%

B2: FITC-OVA: fluorescein isothiocyanate conjugated to ovalbumin (conjugate, UniProt P01012 2-386, looked up)
Ovalbumin: GSIGAASMEFCFDVFKELKVHHANENIFYCPIAIMSALAMVYLGAKDSTRTQINKVVRFDKLPGFGDSIEAQCGTSVNVHSSLRDILNQITKPNDVYSFSLASRLYAEERYPILPEYLQCVKELYRGGLEPINFQTAADQARELINSWVESQTNGIIRNVLQPSSVDSQTAMVLVNAIVFKGLWEKAFKDEDTQAMPFRVTEQESKPVQMMYQIGLFRVASMASEKMKILELPFASGTMSMLVLLPDEVSGLEQLESIINFEKLTEWTSSNVMEERKIKVYLPRMKMEEKYNLTSVLMAMGITDVFSSSANLSGISSAESLKISQAVHAAHAEINEAGREVVGSAEAGVDAASVSEEFRADHPFLFCIKHIATNAVLFFGRCVSP
modifications: FITC label
notes: fluorescein isothiocyanate conjugated to ovalbumin
- entrapment efficiency of FITC-OVA in liposomes [3]: less than 5%

B3: Uteroglobin (protein, UniProt P11684 22-91, looked up)
Uteroglobin: EICPSFQRVIETLLMDTPSSYEAAMELFSPDQDMREAGAQLKKLVDTLPQKPRESIIKLMEKIAQSSLCN
- Effect or point of inhibition (NF-κB): DNA binding

B4: NRF (NF-κB repression factor) (protein, UniProt O15226 1-690, looked up)
NF-kappa-B-repressing factor: MEKILQMAEGIDIGEMPSYDLVLSKPSKGQKRHLSTCDGQNPPKKQAGSKFHARPRFEPVHFVASSSKDERQEDPYGPQTKEVNEQTHFASMPRDIYQDYTQDSFSIQDGNSQYCDSSGFILTKDQPVTANMYFDSGNPAPSTTSQQANSQSTPEPSPSQTFPESVVAEKQYFIEKLTATIWKNLSNPEMTSGSDKINYTYMLTRCIQACKTNPEYIYAPLKEIPPADIPKNKKLLTDGYACEVRCQNIYLTTGYAGSKNGSRDRATELAVKLLQKRIEVRVVRRKFKHTFGEDLVVCQIGMSSYEFPPALKPPEDLVVLGKDASGQPIFNASAKHWTNFVITENANDAIGILNNSASFNKMSIEYKYEMMPNRTWRCRVFLQDHCLAEGYGTKKTSKHAAADEALKILQKTQPTYPSVKSSQCHTGSSPRGSGKKKDIKDLVVYENSSNPVCTLNDTAQFNRMTVEYVYERMTGLRWKCKVILESEVIAEAVGVKKTVKYEAAGEAVKTLKKTQPTVINNLKKGAVEDVISRNEIQGRSAEEAYKQQIKEDNIGNQLLRKMGWTGGGLGKSGEGIREPISVKEQHKREGLGLDVERVNKIAKRDIEQIIRNYARSESHTDLTFSRELTNDERKQIHQIAQKYGLKSKSHGVGHDRYLVVGRKRRKEDLLDQLKQEGQVGHYELVMPQAN
- Effect or point of inhibition (NF-κB): Transactivation

B5: SIRT1 Deacetylase overexpression (protein, UniProt Q96EB6 2-747, looked up)
NAD-dependent protein …: ADEAALALQPGGSPSAAGADREAASSPAGEPLRKRPRRDGPGLERSPGEPGGAAPEREVPAAARGCPGAAAAALWREAEAEAAAAGGEQEAQATAAAGEGDNGPGLQGPSREPPLADNLYDEDDDDEGEEEEEAAAAAIGYRDNLLFGDEIITNGFHSCESDEEDRASHASSSDWTPRPRIGPYTFVQQHLMIGTDPRTILKDLLPETIPPPELDDMTLWQIVINILSEPPKRKKRKDINTIEDAVKLLQECKKIIVLTGAGVSVSCGIPDFRSRDGIYARLAVDFPDLPDPQAMFDIEYFRKDPRPFFKFAKEIYPGQFQPSLCHKFIALSDKEGKLLRNYTQNIDTLEQVAGIQRIIQCHGSFATASCLICKYKVDCEAVRGDIFNQVVPRCPRCPADEPLAIMKPEIVFFGENLPEQFHRAMKYDKDEVDLLIVIGSSLKVRPVALIPSSIPHEVPQILINREPLPHLHFDVELLGDCDVIINELCHRLGGEYAKLCCNPVKLSEITEKPPRTQKELAYLSELPPTPLHVSEDSSSPERTSPPDSSVIVTLLDQAAKSNDDLDVSESKGCMEEKPQEVQTSRNVESIAEQMENPDLKNVGSSTGEKNERTSVAGTVRKCWPNRVAKEQISRRLDGNQYLFLPPNRYIFHGAEVYSDSEDDVLSSSSCGSNSDSGTCQSPSLEEPMEDESEIEEFYNGLEDEPDVPERAGGAGFGTDGDDQEAINEAISVKQEVTDMNYPSNKS
- Effect or point of inhibition (NF-κB): DNA binding
